Source: patent publication US20030175929A1 (ORIENTAL YEAST, published 2003)

B1: human creatine kinase B type subunit (enzyme)
chain: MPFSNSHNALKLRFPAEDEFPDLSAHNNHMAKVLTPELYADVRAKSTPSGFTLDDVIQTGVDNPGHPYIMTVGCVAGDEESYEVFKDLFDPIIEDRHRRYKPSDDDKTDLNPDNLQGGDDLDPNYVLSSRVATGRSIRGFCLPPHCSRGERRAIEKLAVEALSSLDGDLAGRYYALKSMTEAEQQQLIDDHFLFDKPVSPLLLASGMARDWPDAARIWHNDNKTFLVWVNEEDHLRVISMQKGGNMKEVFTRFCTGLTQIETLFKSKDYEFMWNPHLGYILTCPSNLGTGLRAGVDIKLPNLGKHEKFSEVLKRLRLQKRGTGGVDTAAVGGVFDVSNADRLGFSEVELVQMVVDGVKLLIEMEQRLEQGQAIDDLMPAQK
notes: Co-expressed with the CK-M subunit from the single plasmid pTRP-hCKMB; also called CK-B subunit; CK-B
B2: human creatine kinase M type subunit (enzyme)
chain: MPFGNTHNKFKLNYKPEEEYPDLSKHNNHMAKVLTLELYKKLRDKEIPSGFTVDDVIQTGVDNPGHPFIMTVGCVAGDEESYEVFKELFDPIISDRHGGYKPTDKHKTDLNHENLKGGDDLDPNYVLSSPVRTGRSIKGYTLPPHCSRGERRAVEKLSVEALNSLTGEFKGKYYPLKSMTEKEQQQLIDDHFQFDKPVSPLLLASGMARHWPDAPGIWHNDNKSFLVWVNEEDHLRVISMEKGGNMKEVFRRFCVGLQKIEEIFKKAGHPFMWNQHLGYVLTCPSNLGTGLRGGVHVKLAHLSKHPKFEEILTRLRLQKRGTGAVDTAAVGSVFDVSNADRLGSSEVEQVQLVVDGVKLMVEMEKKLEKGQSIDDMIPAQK
notes: Co-expressed with the CK-B subunit from the single plasmid pTRP-hCKMB; also called CK-M subunit; CK-M

Experiments:
[1] = target: the molecule itself; test: co-expression in E. coli; Q-Sepharose separation of dimeric CK isozymes (homodimer)
Description: (§1) The cells thus obtained were collected and suspended in a 50 mM phosphate buffer (pH 7.5) containing 5 mM of mercaptoethanol. After disrupting the cells by ultrasonication, the supernatant was referred to as a recombinant CK extract. From this extract, CK was recovered as a precipitate by 70%-saturation ammonium sulfate salting out. The precipitate thus salted out was dissolved in 1.5 M ammonium sulfate (pH 7.5) and subjected to hydrophobic column chromatography by using a Buthyl-Toyopearl C650 gel (manufactured by Tosoh). The CK activity was eluted at 1.5-0 M-gradient (pH 7.5) ammonium sulfate elution. The CK activity elution peaks were combined, concentrated by using an ultrafiltration membrane (YM10, manufactured by Amicon) and then dialyzed against a 50 mM phosphate buffer (pH 7.5). Fractions eluted by the hydrophobic chromatography were adsorbed by a Q-Sepharose column (manufactured by Pharmacia, Sweden) and thus it was attempted to separate CK isozymes.
(§2) As a result, the CK activity was separated into the MM type (unadsorbed fraction), the MB type (elution peak 1) and the BB type (elution peak 2). […] It was thus found out that CK-MB was expressed at a high dose in this recombinant strain. It could be also confirmed that three human recombinant CK isozymes could be prepared by using this expression strain alone. […]

[2] = target: B1; test: co-expression in E. coli; Q-Sepharose separation of dimeric CK isozymes; MB fraction purified to electrophoretic homogeneity by Sephacryl-S200HR gel filtration
Description: as §1, §2

binding result [2]	Binder	binding result [1]
	B1	binds
binds	B2	binds
